T1: L3MBTL3–SAM (residues 705–773) (UniProt Q96JM7 705-773)
T1 sequence (looked up): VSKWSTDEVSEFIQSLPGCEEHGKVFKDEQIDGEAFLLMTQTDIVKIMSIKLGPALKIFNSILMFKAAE


Assays:
negative-staining EM = target: the molecule itself; assay: negative-staining EM
[1] = target: T1, L3MBTL3–SAM (residues 705–773); assay: SEC

Row | binding result [1] | Binder | binding result (negative-staining EM)
1 |  | wild-type full-length SAMD1 (natural protein, human, UniProt Q6SPF0 1-538, looked up) MAGPPALPPPETAAAATTAAAASSSAASPHYQEWILDTIDSLRSRKARPDLERICRMVRRRHGPEPERTRAELEKLIQQRAVLRVSYKGSISYRNAARVQPPRRGATPPAPPRAPRGAPAAAAAAAPPPTPAPPPPPAPVAAAAPARAPRAAAAAATAPPSPGPAQPGPRAQRAAPLAAPPPAPAAPPAVAPPAGPRRAPPPAVAAREPPLPPPPQPPAPPQQQQPPPPQPQPPPEGGAVRAGGAARPVSLREVVRYLGGSGGAGGRLTRGRVQGLLEEEAAARGRLERTRLGALALPRGDRPGRAPPAASARPSRSKRGGEERVLEKEEEEDDDEDEDEEDDVSEGSEVPESDRPAGAQHHQLNGERGPQSAKERVKEWTPCGPHQGQDEGRGPAPGSGTRQVFSMAAMNKEGGTASVATGPDSPSPVPLPPGKPALPGADGTPFGCPPGRKEKPSDPVEWTVMDVVEYFTEAGFPEQATAFQEQEIDGKSLLLMQRTDVLTGLSIRLGPALKIYEHHIKVLQQGHFEDDDPDGFLG | binds
2 | binds | SAMD1–SAM (residues 459–523 with L495R mutation) (domain or fragment, human, UniProt Q6SPF0 459-523, looked up) PVEWTVMDVVEYFTEAGFPEQATAFQEQEIDGKSLLRMQRTDVLTGLSIRLGPALKIYEHHIKVL | 
